Values quoted from earlier work, collected in US12419862B2, “Use of a cathepsin s inhibitor against the formation of anti-drug antibodies” (Hoffmann-La Roche Inc., priority 2018, dated 2025).

Conditions: current standard of care in IBD; cited from earlier work

Substance | reported immunogenicity rates
adalimumab | ≤ 26%
infliximab: anti-TNFalpha antibody, known to be highly immunogenic | up to 51%
